According to IntAct's records for PubMed 21057455:

B1: SAGA complex subunit SPT8 (Saccharomyces cerevisiae), P38915 (parent)
chain: MDEVDDILINNQVVDDEEDDEEMLSGLENDSKQDLEGNDDGGEDEEDDDDDDEDDDDDEDEREDDDEQEDDDGEDDAARMDKTATPTNEHQHDEQKAAAAGAGGAGDSGDAVTKIGSEDVKLSDVDGGVGSREASSSTHEASANGEVYEYYKHMLNAAQIADSYNIYPTAAIPIQTHVNALAVSRGLKYLFLGGSDGYIRKYDLLNTLEGKLSLTILQKHSLAESIQNAGILQSYWENEIPQKKSEMKLSANKTDYEPKVSPVHSLEVQSECLFILSGLQNGGITMQGVRYMEGSIAHYFKGRNGHTQIVNILRLNGQEDRFLSGSWDKRLLEWDLQTGDIVNEFKKSRSELSSLEMRPLYSSVDVSGNVNSGKENENADDDMDSLFGDEDEDEKQDAGNEPVETGDGSNGEENKEQISEESLNIVYDESVFMTSGLNGSVHIWDRRMTQSPALSLERGAGVPPWCLSACWGVDGDHVYAGRRNACVEQFDLKMPSKPIHNLKLPSISGPVSCVKAMPNNKHLLCASRDNIRLYNVEIAVDASNSTTKSSKVPFLIVPGHHGGIISNLYLDPTSRFIISTSGNRGWQGNSTDTTLIYDIDLE
partner: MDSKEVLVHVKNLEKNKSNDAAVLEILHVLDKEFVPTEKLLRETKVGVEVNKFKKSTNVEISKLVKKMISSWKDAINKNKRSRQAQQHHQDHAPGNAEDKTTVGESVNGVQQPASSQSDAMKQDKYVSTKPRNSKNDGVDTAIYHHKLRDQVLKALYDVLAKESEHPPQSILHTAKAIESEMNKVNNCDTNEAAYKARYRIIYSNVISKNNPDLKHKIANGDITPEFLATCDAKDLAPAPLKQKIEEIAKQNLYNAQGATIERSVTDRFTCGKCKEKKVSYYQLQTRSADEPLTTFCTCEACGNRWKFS
B2: Transcription elongation factor SPT6 (Saccharomyces cerevisiae), P23615 (parent)
chain: MEETGDSKLVPRDEEEIVNDNDETKAPSEEEEGEDVFDSSEEDEDIDEDEDEARKVQEGFIVNDDDENEDPGTSISKKRRKHKRREREEDDRLSEDDLDLLMENAGVERTKASSSSGKFKRLKRVGDEGNAAESESDNVAASRQDSTSKLEDFFSEDEEEEESGLRNGRNNEYGRDEEDHENRNRTADKGGILDELDDFIEDDEFSDEDDETRQRRIQEKKLLREQSIKQPTQITGLSSDKIDEMYDIFGDGHDYDWALEIENEELENGNDNNEAEEEEIDEETGAIKSTKKKISLQDIYDLEDLKKNLMTEGDMKIRKTDIPERYQELRAGITDYGNMSSEDQELERNWIAEKISVDKNFDANYDLTEFKEAIGNAIKFITKENLEVPFIYAYRRNYISSREKDGFLLTEDDLWDIVSLDIEFHSLVNKKDYVQRFYAELHIDDPIVTEYFKNQNTASIAELNSLQDIYDYLEFKYANEINEMFINHTGKTGKKHLKNSSYEKFKASPLYQAVSDIGISAEDVGENISSQHQIHPPVDHPSSKPVEVIESILNANSGDLQVFTSNTKLAIDTVQKYYSLELSKNTKIREKVRSDFSKYYLADVVLTAKGKKEIQKGSLYEDIKYAINRTPMHFRRDPDVFLKMVEAESLNLLSVKLHMSSQAQYIEHLFQIALETTNTSDIAIEWNNFRKLAFNQAMDKIFQDISQEVKDNLTKNCQKLVAKTVRHKFMTKLDQAPFIPNVRDPKIPKILSLTCGQGRFGADAIIAVYVNRKGDFIRDYKIVDNPFDKTNPEKFEDTLDNIIQSCQPNAIGINGPNPKTQKFYKRLQEVLHKKQIVDSRGHTIPIIYVEDEVAIRYQNSERAAQEFPNKPPLVKYCIALARYMHSPLLEYANLTSEEVRSLSIHPHQNLLSSEQLSWALETAFVDIVNLVSVEVNKATDNNYYASALKYISGFGKRKAIDFLQSLQRLNEPLLARQQLITHNILHKTIFMNSAGFLYISWNEKRQKYEDLEHDQLDSTRIHPEDYHLATKVAADALEYDPDTIAEKEEQGTMSEFIELLREDPDRRAKLESLNLESYAEELEKNTGLRKLNNLNTIVLELLDGFEELRNDFHPLQGDEIFQSLTGESEKTFFKGSIIPVRVERFWHNDIICTTNSEVECVVNAQRHAGAQLRRPANEIYEIGKTYPAKVIYIDYANITAEVSLLDHDVKQQYVPISYSKDPSIWDLKQELEDAEEERKLMMAEARAKRTHRVINHPYYFPFNGRQAEDYLRSKERGEFVIRQSSRGDDHLVITWKLDKDLFQHIDIQELEKENPLALGKVLIVDNQKYNDLDQIIVEYLQNKVRLLNEMTSSEKFKSGTKKDVVKFIEDYSRVNPNKSVYYFSLNHDNPGWFYLMFKINANSKLYTWNVKLTNTGYFLVNYNYPSVIQLCNGFKTLLKSNSSKNRMNNYR
partner: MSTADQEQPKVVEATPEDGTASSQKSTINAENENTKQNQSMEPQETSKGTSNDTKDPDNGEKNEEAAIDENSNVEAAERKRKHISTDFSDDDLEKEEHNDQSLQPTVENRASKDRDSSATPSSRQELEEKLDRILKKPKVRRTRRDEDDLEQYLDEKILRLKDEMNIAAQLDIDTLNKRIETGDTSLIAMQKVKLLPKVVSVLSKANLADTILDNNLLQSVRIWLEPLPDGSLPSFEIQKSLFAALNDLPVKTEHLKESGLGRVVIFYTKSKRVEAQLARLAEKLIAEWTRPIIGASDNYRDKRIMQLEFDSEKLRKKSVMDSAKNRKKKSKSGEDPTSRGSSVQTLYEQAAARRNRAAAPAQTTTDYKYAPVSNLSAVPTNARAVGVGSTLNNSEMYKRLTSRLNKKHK
B3: Mediator of RNA polymerase II transcription subunit 13 (Saccharomyces cerevisiae), P38931 (parent)
chain: MSSDASTYRLEDVLSSFYRVEKIKKINYHQYISKAQNDQWSIQMEFMLRKQDPKTLVALLSRDLWCFSINDDPVPTPPAIEHKPVSPDKIGTFTADYSKPNLPPHYALFLKALRRKIYINLALGSHNKLIQFGNACISLSGVPNYLVQLEPHLFVNGDLTVSLCAKNMGLVPMKEENLEESFLSKHALYLAPSGIRMHLAPASKQGYLITPPKHTELLLTTLSVSHGINLQNKKNLKWVAVVPDLGHLNGHTPTIASYLTPLLEAKKLVWPLHLIFAQPVADIENSTSGDPSEFHCLQDALDAIDDFIQLKQTAAYRTPGSSGVLSSNIAGTNPLSSDGAYTEQFQHYKNNSISSQPASYHSVQETNKISPKDFSPNFTGIDKLMLSPSDQFAPAFLNTPNNNINENELFNDRKQTTVSNDLENSPLKTELEANGRSLEKVNNSVSKTGSVDTLHNKEGTLEQREQNENLPSDKSDSMVDKELFGEDEDEDLFGDSNKSNSTNESNKSISDEITEDMFEMSDEEENNNNKSINKNNKEMHTDLGKDIPFFPSSEKPNIRTMSGTTKRLNGKRKYLDIPIDEMTLPTSPLYMDPGAPLPVETPRDRRKSVFAPLNFNPIIENNVDNKYKSGGKFSFSPLQKEEALNFDISMADLSSSEEEEDEEENGSSDEDLKSLNVRDDMKPSDNISTNTNIHEPQYINYSSIPSLQDSIIKQENFNSVNDANITSNKEGFNSIWKIPQNDIPQTESPLKTVDSSIQPIESNIKMTLEDNNVTSNPSEFTPNMVNSEISNLPKDKSGIPEFTPADPNLSFESSSSLPFLLRHMPLASIPDIFITPTPVVTISEKEQDILDLIAEQVVTDYNILGNLGIPKIAYRGVKDCQEGLITTTMLQLFSTFDRLNGNDTISKFYNMKQPYVFVKKHHELIKVKHDSQPFIKFLNFRPPNGIKNFKSLLLSSSFKEDCLSFAPTLSQTYINQELGFCELLKLTNEDPPGLMYLKAFDKNKLLLLAAQIVSYCSNNKNSIKNVPPILIILPLDNATLTELVDKANIFQVIKNEVCAKMPNIELYLKVIPMDFIRNVLVTVDQYVNVAISIYNMLPPKSVKFTHIAHTLPEKVNFRTMQQQQMQQQQQQQQQQQNNSTGSSSIIYYDSYIHLAYSRSVDKEWVFAALSDSYGQGSMTKTWYVGNSRGKFDDACNQIWNIALNLASKKFGKICLILTRLNGILPDDELMNWRRLSGRNIHLAVVCVDDNSKISFIDEDKLYPSFKPIYKDTRFGGRMDMTRLYDYEIRDIDQDIHGIVFQHPFPLAHSQHRCAIRSGALIKFKKCDGDTVWDKFAVNLLNCPHSDSTQLLETILEEFRNLAALNVWYGLSDGEDGHIPWHILAVKKMMNTLVHTRVKIANTSAATVHTATSSSIILSDK
partner: B1 partner

Variants of: B1
Conditions: with tfs2_yeast DST1, P07273

Row | effect of a mutation on the interaction | Variant
1 | disrupting interaction | L386A
2 | disrupting interaction | F387A

Variants of: B2
Conditions: with iws1_yeast SPN1, Q06505

Row | effect of a mutation on the interaction | Variant
3 | disrupting interaction | F249A
4 | disrupting interaction | I248A

Variants of: B3
Conditions: with tfs2_yeast DST1, P07273

Row | effect of a mutation on the interaction | Variant
5 | decreasing interaction | F484A
6 | decreasing interaction | L483A
